Data taken from PMC3164656, “Burkholderia cenocepacia BC2L-C Is a Super Lectin with Dual Specificity and Proinflammatory Activity” (PLoS Pathogens, 2011).

Assays:
[1] = molecular target: BC2L-C-ct, C-terminal domain of BC2L-C (Burkholderia cenocepacia); assay: SEC-MALS; Superdex 200, 20 mM Tris, 250 mM NaCl, 1 mM CaCl2, pH 7.5; loaded at 4.2 mg/mL BC2L-C, 7.5 mg/mL BC2L-C-nt, 10.7 mg/mL BC2L-C-ct; MALLS with refractometry
[2] = tested on: BC2L-C-nt; parameters: method as in PMID 20152153; settings: cited from earlier work
[3] = tested on: B. cenocepacia K56-2; assay: Mannose-dependent lectin extraction from bacterial surface (Western blot); parameters: species or system Burkholderia cenocepacia; settings: 50 mM D-mannose, 5 min, FLAG-tagged lectins
Procedure: Culture supernatant proteins were precipitated with trichloroacetic acid as described previously The protein concentration was determined by Bradford assay (Bio-Rad) and 4 µg of protein were loaded on a 18% SDS-PAGE gel. After electrophoresis, gels were transferred to nitrocellulose membranes for immunoblot analysis. The membranes were incubated with the 4RA2 monoclonal antibody (Neoclone) cross-reacting with the B. cenocepacia RNA polymerase subunit alpha (cytosolic protein, cell lysis control) and the FLAG M2 monoclonal antibody (Sigma). The Alexa Fluor 680 goat anti-mouse IgG (Molecular Probes) was used as a secondary antibody. Detection was performed using the Odyssey Infrared Imager (LI-COR Biosciences).
Overnight cultures were diluted to an OD600 nm of 0.03 in 50 mL LB and grown at 37°C for 8 h. Cells were then centrifuged at 5000 g for 10 min. The pellet was washed twice with 25 mL of phosphate buffered saline (PBS) and finally resuspended in 1.5 mL PBS. Five hundred µL aliquots were placed into two eppendorf tubes to which 500 µL of PBS or 500 µL of 100 mM D-mannose made in PBS (50 mM final concentration) was added. Samples were gently mixed by inversion and incubated for 5 min at room temperature. Samples were centrifuged at 6000 g for 5 min, supernatants were collected (800 µL) and filter-sterilized using […] filters. […]

[4] = molecular target: BC2L-C-nt, N-terminal TNF-α-like domain of BC2L-C (Burkholderia cenocepacia); assay: SEC-MALS; Superdex 200, 20 mM Tris, 250 mM NaCl, 1 mM CaCl2, pH 7.5; loaded at 4.2 mg/mL BC2L-C, 7.5 mg/mL BC2L-C-nt, 10.7 mg/mL BC2L-C-ct; MALLS with refractometry
[5] = molecular target: BC2L-C, soluble lectin from Burkholderia cenocepacia (whole protein) (Burkholderia cenocepacia) (UniProt B4EH87); assay: as above
[6] = tested on: BEAS-2B cells; assay: IL-8 production by respiratory epithelial cells (ELISA); format: cell-based, human; settings: 0.3 µM, 15 h, ELISA of supernatants
Procedure: BC2L-C and its separate domains were used for the stimulation of the human bronchial cell line BEAS-2B obtained from the American Type Cell Collection (Manassas, VA). Cells were maintained in serial passage in F-12K culture medium supplemented with 10% FCS, 1% penicillin and streptomycin, 1% glutamine and 10 mM HEPES in 75 cm2 culture flasks and seeded at 5×10^4 on 24-well plates 3 days before stimulation. In all experiments, BEAS-2B cells were stimulated during 15 hours with the different agonists in a 300 µL medium. IL-8 concentrations in cell culture supernatants were determined using a Duo-Set ELISA kit. Duo-Set ELISA kit and the recombinant human TNF-α were obtained from R&D Systems (Minneapolis, MN).

Molecule “BC2L-C-ct, C-terminal domain of BC2L-C (domain or fragment)” has a stoichiometry N [1] of 2.

In the case of C[C@H](O)[C@@H](O)[C@@H](O)[C@H](O)C=O [fucose], the “binding of isolated BC2L-C-nt domain” value [2] is given as “binds strongly to fucose”.

For OC[C@H]1OC(O)[C@@H](O)[C@@H](O)[C@@H]1O (stereo partly drawn) [D-Man, D-mannose], the “release of surface-bound lectins into supernatant” value [3] was “BC2L-B and -C lectins are released into the supernatant”.

With “BC2L-C-nt, N-terminal TNF-α-like domain of BC2L-C (domain or fragment)” the stoichiometry N [4] was 3.

In the case of “BC2L-C, soluble lectin from Burkholderia cenocepacia (whole protein) (from UniProt B4EH87 1-129) (natural protein)”, the stoichiometry N [5] is reported as 6.

B1: BC2L-C: soluble hexameric lectin from Burkholderia cenocepacia with fucose- and mannose/heptose-binding domains, recombinant (protein)
chain: MADSQTSSNRAGEFSIPPNTDFRAIFFANAAEQQHIKLFIGDSQEPAAYHKLTTRDGPREATLNSGNGKIRFEVSVNGKPSATDARLAPINGKKSDGSPFTVNFGIVVSEDGHDSDYNDGIVVLQWPIG
In the case of B1, the IL-8 production [6] is reported as “markedly increase in IL-8 production”.
